Reference: IntAct's records for PubMed 24352239

Biological target: spt16_yeast SPT16 (UniProt P32558)
Sequence (P32558 whole entry): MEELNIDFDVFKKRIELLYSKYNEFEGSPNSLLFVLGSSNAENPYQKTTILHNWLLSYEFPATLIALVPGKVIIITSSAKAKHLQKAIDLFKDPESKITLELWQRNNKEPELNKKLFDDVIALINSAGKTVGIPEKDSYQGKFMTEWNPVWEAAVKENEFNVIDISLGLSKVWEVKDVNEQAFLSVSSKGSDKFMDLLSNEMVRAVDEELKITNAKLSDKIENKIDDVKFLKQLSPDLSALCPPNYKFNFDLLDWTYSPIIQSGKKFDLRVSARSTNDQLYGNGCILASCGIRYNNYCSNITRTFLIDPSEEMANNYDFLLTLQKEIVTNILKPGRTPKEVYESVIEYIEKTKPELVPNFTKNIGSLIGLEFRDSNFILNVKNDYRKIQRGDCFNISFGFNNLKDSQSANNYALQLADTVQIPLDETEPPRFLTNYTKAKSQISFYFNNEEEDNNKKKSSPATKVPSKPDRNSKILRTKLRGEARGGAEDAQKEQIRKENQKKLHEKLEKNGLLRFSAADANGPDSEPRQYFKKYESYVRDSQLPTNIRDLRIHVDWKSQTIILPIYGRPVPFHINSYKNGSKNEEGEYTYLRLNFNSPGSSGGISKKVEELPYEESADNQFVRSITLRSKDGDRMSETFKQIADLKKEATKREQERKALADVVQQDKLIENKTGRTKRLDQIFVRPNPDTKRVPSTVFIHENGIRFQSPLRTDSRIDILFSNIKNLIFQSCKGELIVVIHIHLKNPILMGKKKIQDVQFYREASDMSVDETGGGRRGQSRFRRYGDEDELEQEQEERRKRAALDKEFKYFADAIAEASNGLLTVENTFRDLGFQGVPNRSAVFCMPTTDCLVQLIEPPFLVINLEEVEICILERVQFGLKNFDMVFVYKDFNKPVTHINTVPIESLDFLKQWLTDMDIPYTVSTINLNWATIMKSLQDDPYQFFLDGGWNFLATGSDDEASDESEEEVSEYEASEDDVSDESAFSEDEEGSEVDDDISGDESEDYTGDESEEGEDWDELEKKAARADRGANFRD

Q: For “Histone H2A type 3 (Homo sapiens) (from UniProt Q7L7L0) Q105A”, which “effect of a mutation on the interaction” value is on record?
A: Its value is “decreasing interaction strength”.
